In the Immune Epitope Database (IEDB):

How the values were obtained:
Assay in all cases: IEDB peptide-MHC binding, purified MHC/competitive/radioactivity; filed as Kd, often an IC50 or EC50 that approximates it; ≥ and ≤ were set here for values at or beyond the usual limits of such assays
HLA-A*11:01 = molecular target: HLA-A*11:01
HLA-A*03:01 = molecular target: HLA-A*03:01
HLA-A*68:01 = molecular target: HLA-A*68:01
HLA-A*31:01 = molecular target: HLA-A*31:01
HLA-A*33:01 = molecular target: HLA-A*33:01
[1] = source organism: Vaccinia virus WR
[2] = source organism: Dengue virus 3 Martinique/1243/1999
[3] = source organism: SARS coronavirus Tor2
[4] = source organism: Dengue virus 2 Jamaica/1409/1983
[5] = source organism: Dengue virus 4 Philippines/H241/1956
[6] = source organism: Mammarenavirus tacaribeense

Q: Which Kd (HLA-A*11:01; [1]) does the source give for KSDAKRNSK here?
A: 887 nM

Q: What about the Kd (HLA-A*03:01; [1]) of the same sequence?
A: 1150 nM

Q: What about the Kd (HLA-A*68:01; [1]) of the same sequence?
A: ≥ 77700 nM

Q: What about the Kd (HLA-A*31:01; [1]) of the same sequence?
A: 1850 nM

Q: What about the Kd (HLA-A*33:01; [1]) of the same sequence?
A: ≥ 77700 nM

Q: Which Kd (HLA-A*11:01; [2]) does the source give for KVTEVRGYTK here?
A: 201 nM

Q: How did the Kd (HLA-A*11:01; [3]) turn out when LFCLLNRYFR was run?
A: 550 nM

Q: What about the Kd (HLA-A*03:01; [3]) of the same sequence?
A: 1240 nM

Q: What about the Kd (HLA-A*68:01; [3]) of the same sequence?
A: 251 nM

Q: And the Kd (HLA-A*31:01; [3])?
A: 12.9 nM

Q: What about the Kd (HLA-A*33:01; [3]) of the same sequence?
A: 36.1 nM

Q: Which results are given for LFKRERDAIK?
A: Kd (HLA-A*11:01; [1]): ≥ 69800 nM; Kd (HLA-A*03:01; [1]): ≥ 30000 nM; Kd (HLA-A*68:01; [1]): ≥ 35500 nM; Kd (HLA-A*31:01; [1]): 1430 nM; Kd (HLA-A*33:01; [1]): 8280 nM

Q: Which Kd (HLA-A*11:01; [1]) does the source give for LFVKKMLPK here?
A: 239 nM

Q: What about the Kd (HLA-A*03:01; [1]) of the same sequence?
A: 1510 nM

Q: What about the Kd (HLA-A*68:01; [1]) of the same sequence?
A: 470 nM

Q: And the Kd (HLA-A*31:01; [1])?
A: 1440 nM

Q: What about the Kd (HLA-A*33:01; [1]) of the same sequence?
A: ≥ 33200 nM

Q: How did the Kd (HLA-A*11:01; [1]) turn out when LIKKSDAKR was run?
A: 236 nM

Q: What about the Kd (HLA-A*03:01; [1]) of the same sequence?
A: ≥ 78000 nM

Q: And the Kd (HLA-A*68:01; [1])?
A: 170 nM

Q: What about the Kd (HLA-A*31:01; [1]) of the same sequence?
A: 13.8 nM

Q: And the Kd (HLA-A*33:01; [1])?
A: 533 nM

Q: With LISGKGIGK as the sequence, how does the Kd (HLA-A*03:01; [2]) read?
A: 722 nM

Q: For LLFQLCTFTK, which Kd (HLA-A*11:01; [3]) is on record?
A: 16.3 nM

Q: What about the Kd (HLA-A*03:01; [3]) of the same sequence?
A: 15.2 nM

Q: And the Kd (HLA-A*68:01; [3])?
A: 66.3 nM

Q: What about the Kd (HLA-A*31:01; [3]) of the same sequence?
A: 197 nM

Q: What about the Kd (HLA-A*33:01; [3]) of the same sequence?
A: 6910 nM

Q: Which results are given for LLIWAYLSK?
A: Kd (HLA-A*11:01; [1]): 101 nM; Kd (HLA-A*03:01; [1]): 90.7 nM; Kd (HLA-A*68:01; [1]): 153 nM; Kd (HLA-A*31:01; [1]): 11200 nM; Kd (HLA-A*33:01; [1]): ≥ 37100 nM

Q: Which results are given for LMCHATFTMR?
A: Kd (HLA-A*31:01; [4]): 7.31 nM; Kd (HLA-A*33:01; [4]): 89 nM

Q: Which results are given for LSSKGLACYR?
A: Kd (HLA-A*11:01; [1]): 43.8 nM; Kd (HLA-A*03:01; [1]): 129 nM; Kd (HLA-A*68:01; [1]): 4.75 nM; Kd (HLA-A*31:01; [1]): 6.87 nM; Kd (HLA-A*33:01; [1]): 47 nM

Q: Which Kd (HLA-A*11:01; [4]) does the source give for MANEMGFLEK here?
A: 519 nM

Q: Which Kd (HLA-A*11:01; [2]) does the source give for MILLTMKNK here?
A: 1200 nM

Q: And the Kd (HLA-A*03:01; [2])?
A: 49.7 nM

Q: MLVAPSYGMR was tested. Which Kd (HLA-A*68:01; [5]) did it give?
A: 7.59 nM

Q: For MPSMKRFRR, which Kd (HLA-A*33:01; [4]) is on record?
A: 6.72 nM

Q: MQTMLFTMLR was tested. Which Kd (HLA-A*11:01; [3]) did it give?
A: 11.2 nM

Q: And the Kd (HLA-A*03:01; [3])?
A: 72.4 nM

Q: What about the Kd (HLA-A*68:01; [3]) of the same sequence?
A: 1.1 nM

Q: And the Kd (HLA-A*31:01; [3])?
A: 9.75 nM

Q: What about the Kd (HLA-A*33:01; [3]) of the same sequence?
A: 13.3 nM

Q: What does the source list for MSAAVKDER?
A: Kd (HLA-A*68:01; [2]): 74.3 nM; Kd (HLA-A*31:01; [2]): 32.4 nM

Q: Which Kd (HLA-A*11:01; [3]) does the source give for MSYYCKSHK here?
A: 78.9 nM

Q: And the Kd (HLA-A*03:01; [3])?
A: 15.1 nM

Q: And the Kd (HLA-A*68:01; [3])?
A: 55.3 nM

Q: What about the Kd (HLA-A*31:01; [3]) of the same sequence?
A: 18.9 nM

Q: What about the Kd (HLA-A*33:01; [3]) of the same sequence?
A: 1590 nM

Q: Which Kd (HLA-A*11:01; [5]) does the source give for MVTFKVPHAK here?
A: 251 nM

Q: And the Kd (HLA-A*03:01; [5])?
A: 80.3 nM

Q: What about the Kd (HLA-A*68:01; [5]) of the same sequence?
A: 133 nM

Q: Which Kd (HLA-A*11:01; [3]) does the source give for NAFNCTFEY here?
A: 19.9 nM

Q: What about the Kd (HLA-A*03:01; [3]) of the same sequence?
A: 3970 nM

Q: And the Kd (HLA-A*68:01; [3])?
A: 9.72 nM

Q: And the Kd (HLA-A*31:01; [3])?
A: 11500 nM

Q: And the Kd (HLA-A*33:01; [3])?
A: 1870 nM

Q: Which Kd (HLA-A*11:01; [6]) does the source give for NCKCCWFADK here?
A: ≥ 69700 nM

Q: What about the Kd (HLA-A*03:01; [6]) of the same sequence?
A: 13300 nM

Q: What about the Kd (HLA-A*68:01; [6]) of the same sequence?
A: ≥ 20700 nM

Q: And the Kd (HLA-A*31:01; [6])?
A: 12100 nM

Q: What about the Kd (HLA-A*33:01; [6]) of the same sequence?
A: ≥ 29600 nM

Q: With NFPQHVITK as the sequence, how does the Kd (HLA-A*11:01; [1]) read?
A: 2050 nM

Q: And the Kd (HLA-A*03:01; [1])?
A: 4020 nM

Q: What about the Kd (HLA-A*68:01; [1]) of the same sequence?
A: 1250 nM

Q: What about the Kd (HLA-A*31:01; [1]) of the same sequence?
A: 11600 nM

Q: What about the Kd (HLA-A*33:01; [1]) of the same sequence?
A: 8920 nM

Q: With NMISRMLINR as the sequence, how does the Kd (HLA-A*68:01; [4]) read?
A: 137 nM

Q: And the Kd (HLA-A*31:01; [4])?
A: 18 nM

Q: What about the Kd (HLA-A*33:01; [4]) of the same sequence?
A: 7.06 nM
